In the supplement of paper PMC6757056:
± gives the standard deviation of the averaged measurements.

B1: library; a variant is named by its letters at N, in order (parent)
chain: GCUGUCACCGAGAAACUGUGAAGUAUAUCUUAAACCUGGGCACUUAAAAGAUAUAUGGAGUUAGUAGUGCAACCUGCUCGGUCUGAUGAGUCCNNNNNNGGACGAAACAGC

How the values were obtained:
cyclic di-GMP [1] = variants of: B1; experiment: normalized RNA/DNA level without ligand (relative to sTRSVctl = 100) (log10 (% of sTRSVctl)); HEK293T; ligand: cyclic di-GMP (c-di-GMP-II aptamer); higher = less ribozyme self-cleavage, higher mRNA level; details: reporter: mCherry (pCS4076), ligand present: no
Method in brief: (§1)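 Library plasmids carrying ribozyme switches linked to mCherry, or to eGFP in some ligand experiments, were transfected into HEK293T at 4 µg per 6-well well, with any ligand added 1 h earlier. Seventy-two hours on, total RNA was extracted with EDTA and reverse-transcribed, amplified, barcoded and sequenced. RNA level was RNA over DNA reads normalized to a spiked-in non-cleaving sequence or to the top sequences, then scaled and log-transformed. The top set was 25 sequences, the transform was ×100 and log10, and sequences needed ≥100 DNA reads.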

cyclic di-GMP [2] = variants of: B1; experiment: normalized RNA/DNA level with ligand (relative to sTRSVctl = 100) (log10 (% of sTRSVctl)); HEK293T; ligand: cyclic di-GMP (c-di-GMP-II aptamer); ligand concentration (+) RNA-Seq: 1 mM; higher = less ribozyme self-cleavage, higher mRNA level; details: reporter: mCherry (pCS4076), ligand present: yes
Method in brief: as §1

| Variant | normalized RNA/DNA level without ligand (log10) (cyclic di-GMP [1]) | normalized RNA/DNA level with ligand (log10) (cyclic di-GMP [2]) |
| --- | --- | --- |
| GUCUGG | 1.68 ± 0.036 | 1.86 ± 0.049 |
| GUCUGA | 1.54 ± 0.018 | 1.75 ± 0.11 |
| GUCUGC | 1.732 ± 0.012 | 1.87 ± 0.12 |
| UUCCGA | 1.79 ± 0.045 | 1.92 ± 0.12 |
| UUCCGC | 1.771 ± 0.0064 | 1.89 ± 0.084 |
| UUCCGG | 1.84 ± 0.045 | 1.93 ± 0.043 |
| CUCGGC | 1.797 ± 0.0073 | 1.9 ± 0.088 |
| CUCGGU | 1.79 ± 0.021 | 1.89 ± 0.16 |
| CUCGGG | 1.76 ± 0.031 | 1.88 ± 0.085 |
| UUCGCC | 1.7 ± 0.051 | 1.83 ± 0.067 |
| UUCGCU | 1.77 ± 0.023 | 1.88 ± 0.087 |
| UUCGCA | 1.787 ± 0.014 | 1.9 ± 0.049 |
| UUCGCG | 1.837 ± 0.0073 | 1.93 ± 0.089 |
| AUGACA | 1.581 ± 0.013 | 1.72 ± 0.14 |
| AUGACG | 1.59 ± 0.089 | 1.76 ± 0.086 |
| UUGAUU | 1.698 ± 0.016 | 1.81 ± 0.083 |
| UUGAUC | 1.73 ± 0.038 | 1.85 ± 0.11 |
| UUGAUA | 1.49 ± 0.02 | 1.69 ± 0.17 |
| AUGCGC | 1.732 ± 0.016 | 1.86 ± 0.099 |
| GUCCUU | 1.7 ± 0.019 | 1.87 ± 0.1 |
| GUCCUC | 1.75 ± 0.026 | 1.9 ± 0.1 |
| GUCCUA | 1.709 ± 0.0036 | 1.88 ± 0.083 |
| AUCUUG | 1.657 ± 0.0055 | 1.81 ± 0.093 |

| Variant | normalized RNA/DNA level without ligand (log10) (cyclic di-GMP [1]) | normalized RNA/DNA level with ligand (log10) (cyclic di-GMP [2]) |
| --- | --- | --- |
| AUCUUC | 1.81 ± 0.038 | 1.92 ± 0.086 |
| AUCUUA | 1.61 ± 0.037 | 1.76 ± 0.12 |
| AUCUUU | 1.69 ± 0.046 | 1.86 ± 0.1 |
| CUGCCG | 1.78 ± 0.011 | 1.92 ± 0.064 |
| CUGCCU | 1.64 ± 0.028 | 1.81 ± 0.15 |
| CUGCCA | 1.613 ± 0.0037 | 1.76 ± 0.18 |
| AUCCCC | 1.8 ± 0.048 | 1.92 ± 0.099 |
| AUCCCU | 1.7543 ± 0.001 | 1.91 ± 0.07 |
| AUCCCA | 1.76 ± 0.024 | 1.86 ± 0.091 |
| CUCCCA | 1.718 ± 0.0069 | 1.87 ± 0.052 |
| CUCCCC | 1.82 ± 0.032 | 1.9 ± 0.089 |
| CUCCCG | 1.79 ± 0.088 | 1.91 ± 0.14 |
| CUCCCU | 1.661 ± 0.0018 | 1.76 ± 0.05 |
| GUCUAU | 1.64 ± 0.045 | 1.78 ± 0.14 |
| GUCUAC | 1.739 ± 0.0096 | 1.89 ± 0.14 |
| GUCUAG | 1.62 ± 0.066 | 1.79 ± 0.072 |
| GUCUAA | 1.56 ± 0.069 | 1.72 ± 0.098 |
| CUGCGC | 1.823 ± 0.0074 | 1.92 ± 0.052 |
| GUCGCA | 1.77 ± 0.021 | 1.86 ± 0.09 |
| GUCGCC | 1.77 ± 0.036 | 1.89 ± 0.12 |
| GUGAGG | 1.61 ± 0.06 | 1.8 ± 0.093 |
| GUGAGC | 1.51 ± 0.086 | 1.77 ± 0.041 |
| GUGAGU | 1.59 ± 0.053 | 1.77 ± 0.11 |

| Variant | normalized RNA/DNA level without ligand (log10) (cyclic di-GMP [1]) | normalized RNA/DNA level with ligand (log10) (cyclic di-GMP [2]) |
| --- | --- | --- |
| GUGACG | 1.66 ± 0.021 | 1.77 ± 0.11 |
| GUGACU | 1.671 ± 0.002 | 1.8 ± 0.089 |
| GUGACA | 1.665 ± 0.0036 | 1.79 ± 0.069 |
| GUGACC | 1.67 ± 0.065 | 1.824 ± 0.015 |
| GUCGGG | 1.73 ± 0.025 | 1.84 ± 0.13 |
| GUCGGU | 1.67 ± 0.039 | 1.83 ± 0.062 |
| GUCGGC | 1.65 ± 0.067 | 1.83 ± 0.053 |
| AUCCAC | 1.718 ± 0.016 | 1.85 ± 0.088 |
| AUCCAA | 1.56 ± 0.053 | 1.73 ± 0.12 |
| AUCCAU | 1.65 ± 0.048 | 1.81 ± 0.088 |
| AUCCAG | 1.719 ± 0.012 | 1.85 ± 0.13 |
| AUCGAU | 1.56 ± 0.076 | 1.77 ± 0.063 |
| AUCGAA | 1.45 ± 0.084 | 1.67 ± 0.09 |
| AUCGAG | 1.56 ± 0.058 | 1.78 ± 0.1 |
| AUCGAC | 1.631 ± 0.012 | 1.8 ± 0.075 |
| AUCCGU | 1.74 ± 0.041 | 1.89 ± 0.12 |
| AUCCGG | 1.85 ± 0.024 | 1.93 ± 0.023 |
| AUCCGC | 1.76 ± 0.032 | 1.88 ± 0.13 |
| AUCCGA | 1.56 ± 0.017 | 1.73 ± 0.15 |
| UUGAGA | 1.58 ± 0.071 | 1.77 ± 0.11 |
| UUGAGU | 1.7248 ± 0.00016 | 1.83 ± 0.15 |
| UUGAGG | 1.79 ± 0.028 | 1.87 ± 0.14 |
| UUGAGC | 1.73 ± 0.025 | 1.86 ± 0.14 |

| Variant | normalized RNA/DNA level without ligand (log10) (cyclic di-GMP [1]) | normalized RNA/DNA level with ligand (log10) (cyclic di-GMP [2]) |
| --- | --- | --- |
| UUGACG | 1.77 ± 0.025 | 1.88 ± 0.1 |
| UUGACU | 1.75 ± 0.025 | 1.84 ± 0.11 |
| AUCCUC | 1.823 ± 0.0034 | 1.94 ± 0.079 |
| AUCCUU | 1.74 ± 0.042 | 1.89 ± 0.081 |
| AUCCUA | 1.61 ± 0.041 | 1.78 ± 0.083 |
| GUGAAC | 1.5 ± 0.08 | 1.69 ± 0.13 |
| UUCCCU | 1.766 ± 0.012 | 1.89 ± 0.048 |
| UUCCCC | 1.84 ± 0.053 | 1.94 ± 0.14 |
| UUCCCG | 1.85 ± 0.1 | 1.94 ± 0.13 |
| UUCCCA | 1.79 ± 0.07 | 1.92 ± 0.12 |
| CUCUGU | 1.78 ± 0.062 | 1.91 ± 0.06 |
| CUCUGC | 1.7905 ± 0.00063 | 1.83 ± 0.13 |
| CUCUGG | 1.81 ± 0.066 | 1.86 ± 0.14 |
| CUCUGA | 1.663 ± 0.015 | 1.81 ± 0.09 |
| CUCCUC | 1.76 ± 0.026 | 1.87 ± 0.11 |
| CUCCUU | 1.61 ± 0.071 | 1.79 ± 0.051 |
| CUCCUG | 1.78 ± 0.065 | 1.85 ± 0.13 |
| GUCCGA | 1.63 ± 0.024 | 1.78 ± 0.14 |
| GUCCGU | 1.65 ± 0.038 | 1.82 ± 0.069 |
| GUCCGC | 1.84 ± 0.03 | 1.93 ± 0.071 |
| GUCCGG | 1.84 ± 0.12 | 1.96 ± 0.11 |
| CUGCAC | 1.742 ± 0.0034 | 1.88 ± 0.1 |
| CUGCAU | 1.6242 ± 0.0013 | 1.77 ± 0.16 |

| Variant | normalized RNA/DNA level without ligand (log10) (cyclic di-GMP [1]) | normalized RNA/DNA level with ligand (log10) (cyclic di-GMP [2]) |
| --- | --- | --- |
| CUGCAG | 1.73 ± 0.075 | 1.88 ± 0.11 |
| CUCCGA | 1.69 ± 0.016 | 1.82 ± 0.15 |
| CUCCGG | 1.79 ± 0.072 | 1.87 ± 0.17 |
| CUCCGC | 1.78 ± 0.019 | 1.91 ± 0.073 |
| CUGAUC | 1.6663 ± 0.001 | 1.76 ± 0.13 |
| UUCUGA | 1.73 ± 0.023 | 1.83 ± 0.046 |
| UUCUGC | 1.784 ± 0.003 | 1.92 ± 0.08 |
| UUCUGU | 1.7281 ± 0.00073 | 1.86 ± 0.1 |
| UUCUGG | 1.79 ± 0.04 | 1.89 ± 0.085 |
| CUCUUC | 1.73 ± 0.052 | 1.87 ± 0.082 |
| CUCUUU | 1.6 ± 0.071 | 1.76 ± 0.079 |
| GUGAUA | 1.5 ± 0.034 | 1.7 ± 0.097 |
| AUGCCC | 1.79 ± 0.051 | 1.82 ± 0.14 |
| AUGCCU | 1.74 ± 0.044 | 1.87 ± 0.14 |
| AUGCCG | 1.7503 ± 0.0015 | 1.86 ± 0.13 |
| UUCGGG | 1.774 ± 0.011 | 1.9 ± 0.13 |
| UUCGGU | 1.75 ± 0.029 | 1.87 ± 0.056 |
| CUGAAC | 1.603 ± 0.0055 | 1.77 ± 0.084 |
| CUGAAG | 1.59 ± 0.018 | 1.73 ± 0.03 |
| CUCGAG | 1.71 ± 0.034 | 1.86 ± 0.11 |
| CUCGAC | 1.714 ± 0.0032 | 1.85 ± 0.069 |
| CUCGAU | 1.72 ± 0.023 | 1.86 ± 0.081 |
| GUGCCC | 1.782 ± 0.016 | 1.84 ± 0.099 |
